Source: patent publication US20200405879A1 (published 2020)

Key:
[1] = biological target: CD22 (human, UniProt P20273 20-847); experiment: cell-based or functional assay; set-up: unit not given beside the values
[2] = biological target: T1, CD19 (human, UniProt P15391 20-556); experiment: cell-based or functional assay; set-up: unit not given beside the values
T1 sequence (looked up): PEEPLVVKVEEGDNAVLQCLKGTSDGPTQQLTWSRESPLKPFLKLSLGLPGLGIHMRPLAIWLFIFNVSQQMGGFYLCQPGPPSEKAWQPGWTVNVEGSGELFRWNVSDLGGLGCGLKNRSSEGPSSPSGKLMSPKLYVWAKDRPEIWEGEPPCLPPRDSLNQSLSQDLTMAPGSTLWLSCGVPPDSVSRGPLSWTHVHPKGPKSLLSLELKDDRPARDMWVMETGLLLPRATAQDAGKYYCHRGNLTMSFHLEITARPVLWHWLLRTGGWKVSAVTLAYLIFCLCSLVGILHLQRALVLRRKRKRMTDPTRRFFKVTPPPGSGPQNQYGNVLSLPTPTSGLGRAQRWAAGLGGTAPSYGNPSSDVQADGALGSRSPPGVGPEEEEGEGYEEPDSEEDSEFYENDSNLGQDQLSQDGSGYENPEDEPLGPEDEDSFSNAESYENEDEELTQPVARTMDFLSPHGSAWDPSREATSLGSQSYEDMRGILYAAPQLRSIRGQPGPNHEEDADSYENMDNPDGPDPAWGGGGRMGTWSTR

B1: ADCx22 (antibody, human IgG1, kappa, V domains shown)
VH: QVQLVQSGAEVKKPGSSVKVSCKASGYTFTSYWLHWVRQAPGQGLEWIGYINPRNDYTEYNQNFKDKATITADESTNTAYMELSSLRSEDTAFYFCARRDITTFYWGQGTLVTVSS
VL: DIQLTQSPSSLSASVGDRVTMSCKSSQSVLYSANHKNYLAWYQQKPGKAPKLLIYWASTRESGVPSRFSGSGSGTDFTFTISSLQPEDIATYYCHQYLSSWTFGQGTKVEIKR
modifications: PBD drug-linker on heavy chain interchain cysteine Cys220 (EU numbering) = position 219 of SEQ ID NO. 15
- EC50, in vitro cytotoxicity (MTS cell viability) on Ramos cells, 4 days [1]: 0.0133

B2: ADCx19 (antibody, V domains shown)
VH: QVQLVQPGAEVVKPGASVKLSCKTSGYTFTSNWMHWVKQAPGQGLEWIGEIDPSDSYTNYNQNFQGKAKLTVDKSTSTAYMEVSSLRSDDTAVYYCARGSNPYYYAMDYWGQGTSVTVS
VL: EIVLTQSPAIMSASPGERVTMTCSASSGVNYMHWYQQKPGTSPRRWIYDTSKLASGVPARFSGSGSGTSYSLTISSMEPEDAATYYCHQRGSYTFGGGTKLEIK
modifications: pyrrolobenzodiazepine (PBD) dimer warhead attached to the antibody via a cleavable linker; DAR 2+/-0.3; attachment residues not stated
- EC50, in vitro cytotoxicity (MTS cell viability) on Ramos cells, 4 days [2]: 0.000239
